Measured values published in patent US20020001840A1.

Target: purified αvβ3 integrin (UniProt P06756)
Assay: cell-based or functional assay

Sequence of purified αvβ3 integrin (P06756 31-1048, form in doubt, chain 1 of 2): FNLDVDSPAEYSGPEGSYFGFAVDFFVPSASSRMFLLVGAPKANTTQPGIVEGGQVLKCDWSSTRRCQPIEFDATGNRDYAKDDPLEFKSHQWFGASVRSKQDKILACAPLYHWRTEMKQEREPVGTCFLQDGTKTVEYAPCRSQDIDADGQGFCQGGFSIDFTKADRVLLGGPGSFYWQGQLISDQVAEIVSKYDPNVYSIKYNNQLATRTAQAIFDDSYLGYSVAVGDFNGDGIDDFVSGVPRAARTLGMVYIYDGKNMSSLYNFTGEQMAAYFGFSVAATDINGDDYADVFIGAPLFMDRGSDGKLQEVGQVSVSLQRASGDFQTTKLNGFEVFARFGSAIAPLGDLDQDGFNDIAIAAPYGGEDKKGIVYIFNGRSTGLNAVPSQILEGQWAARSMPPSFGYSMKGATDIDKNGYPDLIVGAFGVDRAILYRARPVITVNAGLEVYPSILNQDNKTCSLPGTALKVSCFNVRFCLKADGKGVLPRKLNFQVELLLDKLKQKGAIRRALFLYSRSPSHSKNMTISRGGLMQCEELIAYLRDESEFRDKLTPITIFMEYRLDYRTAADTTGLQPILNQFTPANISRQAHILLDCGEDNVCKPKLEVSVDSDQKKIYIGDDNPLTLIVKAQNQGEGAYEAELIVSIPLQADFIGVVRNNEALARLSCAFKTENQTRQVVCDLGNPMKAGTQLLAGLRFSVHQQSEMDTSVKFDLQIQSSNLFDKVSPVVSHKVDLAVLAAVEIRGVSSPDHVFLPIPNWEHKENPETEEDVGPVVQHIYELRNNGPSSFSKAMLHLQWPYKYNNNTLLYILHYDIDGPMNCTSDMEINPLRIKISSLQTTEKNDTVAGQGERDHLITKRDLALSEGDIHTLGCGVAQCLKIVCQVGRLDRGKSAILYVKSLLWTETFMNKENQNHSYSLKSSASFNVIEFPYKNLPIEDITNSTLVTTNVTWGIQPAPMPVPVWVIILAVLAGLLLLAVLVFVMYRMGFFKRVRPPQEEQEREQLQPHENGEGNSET
Sequence of purified αvβ3 integrin (P05106 27-788, form in doubt, chain 2 of 2, further chain): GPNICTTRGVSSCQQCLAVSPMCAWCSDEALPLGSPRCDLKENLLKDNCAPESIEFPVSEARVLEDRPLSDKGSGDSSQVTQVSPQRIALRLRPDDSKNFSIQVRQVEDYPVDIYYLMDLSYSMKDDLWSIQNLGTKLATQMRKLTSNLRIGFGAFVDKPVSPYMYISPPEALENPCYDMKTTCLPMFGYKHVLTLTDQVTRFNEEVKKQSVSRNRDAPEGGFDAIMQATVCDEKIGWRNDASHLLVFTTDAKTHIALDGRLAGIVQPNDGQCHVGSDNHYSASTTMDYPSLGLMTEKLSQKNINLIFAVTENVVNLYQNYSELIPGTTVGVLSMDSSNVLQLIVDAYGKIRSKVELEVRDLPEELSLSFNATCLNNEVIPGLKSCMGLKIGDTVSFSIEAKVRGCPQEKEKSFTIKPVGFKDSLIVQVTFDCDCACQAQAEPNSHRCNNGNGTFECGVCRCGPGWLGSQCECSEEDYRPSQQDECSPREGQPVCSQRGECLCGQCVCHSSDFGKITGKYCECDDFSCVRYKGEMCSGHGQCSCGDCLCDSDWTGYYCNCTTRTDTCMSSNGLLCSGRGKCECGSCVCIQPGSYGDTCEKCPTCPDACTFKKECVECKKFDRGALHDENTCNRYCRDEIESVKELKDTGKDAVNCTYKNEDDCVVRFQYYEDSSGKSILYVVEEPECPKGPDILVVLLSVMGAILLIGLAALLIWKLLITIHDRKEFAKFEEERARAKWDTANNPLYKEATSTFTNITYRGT

cell adhesion promoting effect, SH-Sy5y neuroblastoma cells: 40%
Substance: mutADAM 23 disintegrin-like domain (E466A) expressed as a fusion protein with GST (from UniProt O75077 498-588)
